Numbering of substitutions follows the chain as printed. Read-outs that look alike come from different tables or passages of the source.
Assays:
[1] = biological target: Canine FcRn-B2M recombinant protein (Immunitrack) (canine); experiment: SPR (Biacore 8K), canine FcRn-B2M amine-coupled on CM5 chip, running buffer pH 6, steady state affinity
[2] = biological target: T1, Human nerve growth factor (NGF) (human, UniProt P01138 122-241); experiment: cell-based or functional assay
[3] = biological target: T1, Human nerve growth factor (NGF); experiment: SPR (Biacore 8K), human NGF as analyte on Bedinvetmab, kinetics affinity, 1:1 binding fit
[4] = biological target: T2, Rat nerve growth factor (NGF) (rat, UniProt P25427 122-241); experiment: SPR (Biacore 8K), PetML119 captured on Protein A chip, rat NGF as analyte, kinetics affinity
T2 construct: Bought reagent; also called rat NGF
T2 sequence (P25427 122-241 limits assumed): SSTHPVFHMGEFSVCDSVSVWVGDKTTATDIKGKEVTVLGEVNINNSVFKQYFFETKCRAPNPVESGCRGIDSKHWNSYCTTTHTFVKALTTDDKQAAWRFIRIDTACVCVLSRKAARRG
Experimental: (§1) Briefly, Protein A Sensor Chip (Cytiva) was docked into Biacore 8K, equilibrated for 30' at RT and then Running Buffer (10 mM HEPES pH7.4 150 mM NaCl 3 mM EDTA and 0.005% Tween20) was applied to the SPR chip surface.
(§2) These have been immobilised using 90 sec association at 10 uL/min as capturing step, followed by injection of running buffer to remove any unbound product.
(§3) Kinetics were assessed using multi-cycle kinetics with capture step method (30 sec association-120 sec dissociation) followed by regeneration step (0.1M Glycine pH2.2 contact time 60 sec FR 30 uL/min).

[5] = biological target: T1, Human nerve growth factor (NGF); experiment: SPR (Biacore 8K), PetML119 captured on Protein A chip, human NGF as analyte, kinetics affinity
Experimental: as §1, §2, §3

[6] = biological target: T3, Murine FcRn-B2M recombinant protein (Immunitrack) (murine, UniProt Q61559 22-297; P01887 21-119, limits assumed); experiment: SPR (Biacore 8K), murine FcRn-B2M amine-coupled on CM5 chip, running buffer pH 6, steady state affinity
T3 construct: Bought reagent, amine-coupled to a CM5 chip; also called murine neonatal receptor
T3 sequence (looked up): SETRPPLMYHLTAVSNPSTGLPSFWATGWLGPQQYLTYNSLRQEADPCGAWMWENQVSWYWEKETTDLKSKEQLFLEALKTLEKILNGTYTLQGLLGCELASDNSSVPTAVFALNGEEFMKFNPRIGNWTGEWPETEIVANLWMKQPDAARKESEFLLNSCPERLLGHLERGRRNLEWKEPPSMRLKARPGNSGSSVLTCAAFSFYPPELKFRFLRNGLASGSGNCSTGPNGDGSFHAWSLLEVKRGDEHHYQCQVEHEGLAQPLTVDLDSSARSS
T3 sequence (b2m, looked up): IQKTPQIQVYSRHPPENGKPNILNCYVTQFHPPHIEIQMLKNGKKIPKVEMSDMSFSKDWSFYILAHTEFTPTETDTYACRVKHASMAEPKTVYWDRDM
Experimental: (§4) Briefly, CM5 Sensor Chip (Cytiva) was docked into Biacore 8K, equilibrated for 30' at RT and then Running Buffer (10 mM HEPES pH6 150 mM NaCl 3 mM EDTA and 0.005% Tween20) was applied to the SPR chip surface.
(§5) Canine and murine FcRn-B2M recombinant protein (Immunitrack, ITF12-ITF08) was diluted into 10 mM acetate buffer pH4.5 at 4 nM (1:2000 dilution from stock) and immobilised using standard amine coupling reaction.

[7] = biological target: T3, Murine FcRn-B2M recombinant protein …; experiment: as above; remark: listed apart in the source
Experimental: as §4, §5

[8] = biological target: T3, Murine FcRn-B2M recombinant protein …; experiment: SPR (Biacore 8K), murine FcRn-B2M amine-coupled on CM5, pH 6, multi-cycle kinetics; reference not named, taken as PetML119 (wild type Fc)
Experimental: as §4, §5

T1 sequence (P01138 122-241 limits assumed): as the sequence (P25427 122-241 limits assumed) above, with T3S, V6I, M9R, T37M, A60D, E65D, T92M, D94G, A117V, G120A counted along it

In the case of “PetML119 (canine p75NTR ECD - canine IgGB wt Fc protein fusion) (Fc fusion)”, the Kd [1] is reported as 6000 nM.

Molecule “PetML122 (canine p75NTR ECD - canine Fc YTE protein fusion) (Fc fusion)” has a Kd [1] of 400 nM.

B1: Bedinvetmab (antibody, V domains shown)
VH: EVQLVESGGDLVKPGGSLRLSCVASGFTFSSHGMHWVRQSPGKGLQWVAVINSGGSSTYYTDAVKGRFTISRDNAKNTVYLQMNSLRAEDTAMYYCAKESVGGWEQLVGPHFDYWGQGTLVIVSS
VL: QSVLTQPTSVSGSLGQRVTISCSGSTNNIGILGASWYQLFPGKAPKLLVYGNGNRPSGVPDRFSGADSGDSVTLTITGLQAEDEADYYCQSFDTTLGAHVFGGGTHLTVL
In the case of B1, the “IC50 (nM), inhibition of TF-1 cell proliferation” value (shortened to “IC50 (nM), inhibition”) [2] is reported as 1.65 nM and the Kd [3] is reported as 0.073 nM.

B2: PetML119 (canine p75NTR ECD - canine IgGB wt Fc protein fusion) (Fc fusion)
chain: KEACPTGLYTHSGECCKACNLGEGVAQPCGANQTVCEPCLDSVTFSDVVSATEPCKPCTECVGLQSMSAPCVEADDAVCRCAYGYYQDETTGRCEACRVCEAGSGLVFSCQDRQNTVCEECPDGTYSDEANHVDPCLPCTVCEDTERQLRECTRWADAECEEIPGGGGRENGRVPRPPDCPKCPAPEMLGGPSVFIFPPKPKDTLLIARTPEVTCVVVDLDPEDPEVQISWFVDGKQMQTAKTQPREEQFNGTYRVVSVLPIGHQDWLKGKQFTCKVNNKALPSPIERTISKARGQAHQPSVYVLPPSREELSKNTVSLTCLIKDFFPPDIDVEWQSNGQQEPESKYRTTPPQLDEDGSYFLYSKLSVDKSRWQRGDTFICAVMHEALHNHYTQKSLSHSPGK
notes: also called PetMI119; Fc-Bwt
In the case of B2, the “IC50 (nM), inhibition” value [2] is reported as 15.2 nM, the Kd [4] is reported as 0.12 nM and the Kd [5] is reported as 0.12 nM. For the same molecule, the Kd [6] was 2000 nM.

B3: PetML122 (canine p75NTR ECD - canine Fc YTE protein fusion) (Fc fusion)
chain: B2 chain with L206Y, A208T, T210E
notes: Same construct as PetML119, but with the YTE triple mutation in the Fc; also called PetMI122; Fc-B-YTE
In the case of B3, the “IC50 (nM), inhibition” value [2] is reported as 5.91 nM, the Kd [7] is reported as 90 nM and the “fold increase in binding affinity” value [8] is reported as 10 fold.
